Data on 3 molecules can be found in patent publication US20200216522A1 (DENALI THERAPEUTICS, published 2020).

Values joined by “and” are separate entries in the source; they are usually repeats but may differ in a detail not shown here. Equal values may be shown once.

The target in assay [1] is T1, full-length human Tau (Tau441; 2N4R), recombinant (human, UniProt P10636 1-758).
T1 construct: made in E. coli, His6-Smt3 tag removed; biotinylated through amines for Octet and phage work; also called r-Tau; recombinant Tau
As to the kind of experiment: Fab ELISA. As for the experimental part: (§1) Half-area ELISA plates (Costar™) were coated overnight at 4° C. with 25 μL per well of 0.5 μg/mL r-Tau or p-Tau. The plates were washed three times with PBST using a BioTek® plate washer. The plates were then blocked for one hour at room temperature with 100 μL per well of PBSA. After washing three times with PBST, the periplasmically-expressed Fabs were added ([…]) and the plates were incubated for one hour. The plates were subsequently washed three times with PBST, and 25 μL per well of PBSA containing a 1:5,000 dilution of HRP-conjugated rabbit anti-human kappa (obtained from Bethyl Laboratories) was added. The plates were incubated at room temperature for 30 minutes, then washed three times with PBST. The plates were developed by adding 25 μL per well of TMB substrate (obtained from Thermo Fisher) and quenched with 2N H₂SO₄. The signal was quantified on a BioTek® plate reader at A₄₅₀. Wells with signal greater than 5-fold over background for both r-Tau and p-Tau were considered positive and the clones were re-arrayed from the primary culture for confirmation of binding (by repeat of ELISA) and sequencing of the variable regions.
(§2) ELISAs were performed essentially as described above, but coating was performed using 1 μg/mL of each recombinant Tau species and using a 1:1 dilution (in PBS with 0.1% BSA, 0.05% Tween®) of Fab containing supernatant. The results of the ELISAs, showing Fab binding to cyno Tau and mouse Tau, as well as binding to phosphorylated full-length human Tau and the human Tau isoforms, are shown in Table 1 below.
Background: In an ELISA, binding on a coated surface is turned into a signal by an enzyme label.

The target in assay [2] is T2, hyperphosphorylated recombinant human Tau441 (p-Tau) (human, UniProt P10636 1-758, phosphorylated in vitro with PKA and GSK3beta; sites not listed).
T2 construct: also called p-Tau (2N4R); phosphorylated r-Tau
The assay can be described thus: Fab ELISA. As for the experimental part:
as §1, §2

The target in assay [3] is T3, C-terminal truncated human Tau (Tau(1-421)) (human, UniProt P10636 1-738).
T3 construct: also called 1-421 (2N4R)
The assay can be described thus: Fab ELISA. As for the experimental part: as §1, §2

The target in assay [4] is human Tau splice isoform 1N3R (Tau381) (human, UniProt P10636 1-758). As to the kind of experiment: Fab ELISA. As for the experimental part: as §1, §2
Assay [5] concerns the target human Tau splice isoform 0N3R (Tau352) (human, UniProt P10636 1-758). The assay can be described thus: Fab ELISA. As for the experimental part:
as §1, §2

For assay [6], the target named is human Tau splice isoform 2N3R (Tau410) (human, UniProt P10636 1-758). The assay can be described thus: Fab ELISA. As for the experimental part: as §1, §2
The target in assay [7] is human Tau splice isoform 1N4R (Tau412) (human, UniProt P10636 1-758). As to the kind of experiment: Fab ELISA. As for the experimental part: as §1, §2
The next assay addresses mouse Tau (mouse, UniProt P10637 2-733). The assay can be described thus: Fab ELISA. As for the experimental part: as §1, §2
Another assay has as its target T4, cynomolgus monkey Tau (cynomolgus monkey, UniProt P57786 2-459 (rhesus entry)).
T4 construct: also called cyno Tau; cyno-Tau
The assay can be described thus: Fab ELISA. As for the experimental part: as §1, §2

Assay [8] addresses human Tau splice isoform 0N4R (Tau383) (human, UniProt P10636 1-758). As to the kind of experiment: Fab ELISA. As for the experimental part: as §1, §2
Assay [9] deals with T5, N-terminal truncated human Tau (Tau(50-441)) (human, UniProt P10636 50-758).
T5 construct: also called 50-441 (2N4R)
The assay can be described thus: Fab ELISA. As for the experimental part: as §1, §2

In assay [10] the target is T1, full-length human Tau (Tau441; 2N4R), …. As to the kind of experiment: Octet binning on biotin-r-Tau; row antibody Ab107 (anti-BACE1 control). As for the experimental part: (§3) Epitope binning assays were performed using a FortéBio® Octet® RED384 instrument using FortéBio® Streptavidin biosensors. Biotinylated recombinant Tau was diluted to a concentration of 2 μg/mL in kinetic buffer (obtained from FortéBio®) and captured onto individual biosensors for 1 minute. A baseline was then established for 1 minute in kinetic buffer. The loaded biosensors were dipped into 10 μg/mL of the first chimeric IgG antibody until signal saturation, followed by dipping into 1 μg/mL of a second antibody. The binding for the second antibody was normalized to its total binding in the absence of the first antibody.
On the technique in general: Biolayer interferometry detects binding as a change in optical thickness at a sensor tip.

Assay [11] shares this target. As to the kind of experiment: Octet binning on biotin-r-Tau; competitor 1A5. As for the experimental part: as §3
Assay [12] has the same target. The assay can be described thus: Octet binning on biotin-r-Tau; competitor 1D10. As for the experimental part: as §3
The target is the same in assay [13]. As to the kind of experiment: Octet binning on biotin-r-Tau; competitor 1C7. As for the experimental part: as §3
Assay [14] has the same target. As to the kind of experiment: SPR Biacore, IgG captured, r-Tau injected. As for the experimental part:
The affinity of chimeric IgG antibodies 1C7, 1A1, 1A5, 1D10, and 1G7 for recombinant Tau was determined by surface plasmon resonance using a Biacore™ T200 instrument. Biacore™ Series S CM5 sensor chips were immobilized with monoclonal mouse anti-human IgG (Fc) antibody (human antibody capture kit from GE Healthcare). 1 μg/mL of antibody was captured for 1 minute on each flow cell and serial 3-fold dilutions of recombinant Tau were injected at a flow rate of […]. Each sample was analyzed with a 3-minute association and a 10-minute dissociation. After each injection the chip was regenerated using 3M MgCl₂. Binding response was corrected by subtracting the RU from a flow cell capturing an irrelevant IgG at similar density. A 1:1 Languir model of simultaneous fitting of kₒₙ and koff was used for kinetics analysis.

Assay [15] shares this target. The assay can be described thus: SPR Biacore.
For assay [16] the target is unchanged. The assay can be described thus: Octet binning on biotin-r-Tau; competitor 1G7. As for the experimental part:
as §3

T1 sequence (P10636 other isoform, or with tags, fused parts or gaps limits assumed): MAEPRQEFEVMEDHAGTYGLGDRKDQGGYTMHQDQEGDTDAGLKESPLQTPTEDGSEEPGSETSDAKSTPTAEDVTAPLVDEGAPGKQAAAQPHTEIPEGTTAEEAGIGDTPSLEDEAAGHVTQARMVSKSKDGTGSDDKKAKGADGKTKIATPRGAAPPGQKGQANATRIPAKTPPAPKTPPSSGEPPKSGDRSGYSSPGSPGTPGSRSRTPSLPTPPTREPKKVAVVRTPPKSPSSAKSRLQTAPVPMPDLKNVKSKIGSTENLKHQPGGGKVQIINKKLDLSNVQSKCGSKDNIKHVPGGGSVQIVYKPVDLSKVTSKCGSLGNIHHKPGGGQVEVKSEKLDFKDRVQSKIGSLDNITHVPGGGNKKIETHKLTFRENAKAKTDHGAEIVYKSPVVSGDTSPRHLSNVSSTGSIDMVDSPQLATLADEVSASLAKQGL
T3 sequence (P10636 other isoform, or with tags, fused parts or gaps limits assumed): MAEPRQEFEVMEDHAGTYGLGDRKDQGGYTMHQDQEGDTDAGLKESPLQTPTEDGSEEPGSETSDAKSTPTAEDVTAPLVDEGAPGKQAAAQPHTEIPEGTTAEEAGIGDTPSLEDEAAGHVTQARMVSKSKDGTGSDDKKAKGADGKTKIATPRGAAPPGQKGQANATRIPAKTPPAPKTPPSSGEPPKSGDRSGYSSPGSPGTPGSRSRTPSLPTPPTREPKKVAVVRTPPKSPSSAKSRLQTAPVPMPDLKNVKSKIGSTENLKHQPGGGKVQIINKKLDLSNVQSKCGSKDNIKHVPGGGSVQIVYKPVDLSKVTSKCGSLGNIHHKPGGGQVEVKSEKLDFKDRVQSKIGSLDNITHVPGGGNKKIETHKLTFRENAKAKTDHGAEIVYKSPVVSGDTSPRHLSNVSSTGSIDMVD
Chain of human Tau splice isoform 1N3R (Tau381) (P10636 other isoform, or with tags, fused parts or gaps limits assumed): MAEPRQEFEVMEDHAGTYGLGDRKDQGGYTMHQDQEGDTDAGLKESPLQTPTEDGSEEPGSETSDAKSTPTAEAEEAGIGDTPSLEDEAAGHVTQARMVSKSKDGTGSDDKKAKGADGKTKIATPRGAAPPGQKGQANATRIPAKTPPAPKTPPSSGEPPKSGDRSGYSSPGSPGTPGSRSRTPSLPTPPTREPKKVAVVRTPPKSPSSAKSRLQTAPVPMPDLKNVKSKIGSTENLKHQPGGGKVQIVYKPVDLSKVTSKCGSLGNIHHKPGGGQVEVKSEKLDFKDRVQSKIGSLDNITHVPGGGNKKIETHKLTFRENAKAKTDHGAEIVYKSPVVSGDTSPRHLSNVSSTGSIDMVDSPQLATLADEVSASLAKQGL
Chain of human Tau splice isoform 2N3R (Tau410) (P10636 other isoform, or with tags, fused parts or gaps limits assumed): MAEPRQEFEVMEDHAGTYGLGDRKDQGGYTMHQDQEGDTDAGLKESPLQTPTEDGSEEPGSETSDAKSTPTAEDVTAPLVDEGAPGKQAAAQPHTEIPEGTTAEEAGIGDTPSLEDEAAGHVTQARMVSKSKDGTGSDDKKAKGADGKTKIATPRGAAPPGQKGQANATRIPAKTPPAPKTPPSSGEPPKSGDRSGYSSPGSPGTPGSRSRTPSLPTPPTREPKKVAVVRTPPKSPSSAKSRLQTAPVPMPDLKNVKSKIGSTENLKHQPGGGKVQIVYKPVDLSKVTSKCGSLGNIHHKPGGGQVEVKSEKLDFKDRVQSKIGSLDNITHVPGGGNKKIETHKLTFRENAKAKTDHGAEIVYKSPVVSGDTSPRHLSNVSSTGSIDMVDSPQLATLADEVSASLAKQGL
T5 sequence (P10636 other isoform, or with tags, fused parts or gaps limits assumed): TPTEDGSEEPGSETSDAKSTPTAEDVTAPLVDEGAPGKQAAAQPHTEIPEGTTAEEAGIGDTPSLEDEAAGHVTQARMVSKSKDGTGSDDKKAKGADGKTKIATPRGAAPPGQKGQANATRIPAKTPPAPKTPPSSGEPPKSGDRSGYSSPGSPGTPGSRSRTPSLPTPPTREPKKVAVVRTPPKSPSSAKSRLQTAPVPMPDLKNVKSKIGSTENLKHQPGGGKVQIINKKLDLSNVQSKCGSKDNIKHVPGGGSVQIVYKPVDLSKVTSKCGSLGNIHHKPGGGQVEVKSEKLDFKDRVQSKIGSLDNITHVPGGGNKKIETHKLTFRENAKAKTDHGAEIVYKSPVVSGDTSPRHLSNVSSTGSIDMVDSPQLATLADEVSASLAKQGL
Chain of human Tau splice isoform 0N3R (Tau352) (P10636 other isoform, or with tags, fused parts or gaps limits assumed): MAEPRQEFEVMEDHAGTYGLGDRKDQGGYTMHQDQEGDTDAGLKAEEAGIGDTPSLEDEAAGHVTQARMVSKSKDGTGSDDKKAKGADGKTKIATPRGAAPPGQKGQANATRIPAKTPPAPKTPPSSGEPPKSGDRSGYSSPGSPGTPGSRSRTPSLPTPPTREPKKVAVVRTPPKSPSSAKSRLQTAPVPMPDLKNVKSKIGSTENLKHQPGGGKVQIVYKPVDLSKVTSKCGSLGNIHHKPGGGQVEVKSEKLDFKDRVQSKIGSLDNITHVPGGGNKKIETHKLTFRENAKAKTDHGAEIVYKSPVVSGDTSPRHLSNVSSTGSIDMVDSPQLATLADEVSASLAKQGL
Chain of mouse Tau (P10637 other isoform, or with tags, fused parts or gaps limits assumed): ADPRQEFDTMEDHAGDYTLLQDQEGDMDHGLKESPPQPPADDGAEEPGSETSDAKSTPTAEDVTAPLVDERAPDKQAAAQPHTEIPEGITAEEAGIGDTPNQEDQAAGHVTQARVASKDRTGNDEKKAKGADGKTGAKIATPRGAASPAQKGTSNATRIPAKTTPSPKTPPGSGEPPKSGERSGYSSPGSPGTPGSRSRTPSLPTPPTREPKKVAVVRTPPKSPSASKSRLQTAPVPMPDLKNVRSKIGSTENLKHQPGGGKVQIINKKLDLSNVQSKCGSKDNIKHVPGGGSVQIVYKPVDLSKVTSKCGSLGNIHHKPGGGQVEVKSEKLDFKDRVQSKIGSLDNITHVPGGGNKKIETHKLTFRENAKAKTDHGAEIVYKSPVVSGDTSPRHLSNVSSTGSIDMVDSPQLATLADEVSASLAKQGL
T4 sequence (P57786 other isoform, or with tags, fused parts or gaps limits assumed): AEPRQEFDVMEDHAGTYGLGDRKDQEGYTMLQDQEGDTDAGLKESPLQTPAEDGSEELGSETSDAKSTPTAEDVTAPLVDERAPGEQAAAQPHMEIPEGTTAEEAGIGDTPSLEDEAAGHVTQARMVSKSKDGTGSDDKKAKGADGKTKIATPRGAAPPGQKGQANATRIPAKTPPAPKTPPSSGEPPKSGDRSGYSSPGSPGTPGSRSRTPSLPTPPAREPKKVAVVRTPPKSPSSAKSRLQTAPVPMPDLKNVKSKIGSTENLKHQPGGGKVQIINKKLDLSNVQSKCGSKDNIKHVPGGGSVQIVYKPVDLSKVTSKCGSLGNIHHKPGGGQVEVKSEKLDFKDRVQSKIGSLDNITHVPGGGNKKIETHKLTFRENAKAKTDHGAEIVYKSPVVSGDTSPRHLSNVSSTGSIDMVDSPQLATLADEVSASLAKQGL
Chain of human Tau splice isoform 1N4R (Tau412) (P10636 other isoform, or with tags, fused parts or gaps limits assumed): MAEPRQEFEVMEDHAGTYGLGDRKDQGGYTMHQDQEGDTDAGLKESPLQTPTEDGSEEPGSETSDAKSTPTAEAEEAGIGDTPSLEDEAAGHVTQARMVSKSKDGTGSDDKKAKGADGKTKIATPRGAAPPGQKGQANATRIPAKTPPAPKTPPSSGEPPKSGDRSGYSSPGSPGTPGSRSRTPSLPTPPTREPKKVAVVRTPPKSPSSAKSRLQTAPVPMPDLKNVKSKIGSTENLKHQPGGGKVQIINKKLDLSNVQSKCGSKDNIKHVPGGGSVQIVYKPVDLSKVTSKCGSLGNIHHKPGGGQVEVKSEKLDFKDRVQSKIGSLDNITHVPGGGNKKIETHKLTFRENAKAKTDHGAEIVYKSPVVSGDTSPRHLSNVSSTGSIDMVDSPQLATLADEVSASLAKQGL
Chain of human Tau splice isoform 0N4R (Tau383) (P10636 other isoform, or with tags, fused parts or gaps limits assumed): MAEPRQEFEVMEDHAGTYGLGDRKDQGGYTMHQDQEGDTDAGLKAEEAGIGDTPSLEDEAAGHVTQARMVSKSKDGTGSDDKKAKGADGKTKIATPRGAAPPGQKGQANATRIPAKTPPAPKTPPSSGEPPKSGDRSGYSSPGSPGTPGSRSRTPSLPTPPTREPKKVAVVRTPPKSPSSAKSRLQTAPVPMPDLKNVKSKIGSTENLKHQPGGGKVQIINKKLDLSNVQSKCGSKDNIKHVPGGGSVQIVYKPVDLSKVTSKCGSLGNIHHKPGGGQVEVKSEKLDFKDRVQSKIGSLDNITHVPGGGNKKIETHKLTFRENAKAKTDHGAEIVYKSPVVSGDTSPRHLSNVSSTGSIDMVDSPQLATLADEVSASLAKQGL

B1: Clone 1G7 Fab (Fab, V domains shown)
VH: EVQLQQSGAEVVRPGASVKLSCTTSGFNIKDSLMHWLKQRPEQGLEWIGWIDPEDGETKYAPKFQDKATITADTSSNTAYLQLSSLTSGDTAIYYCARRDWEGPWGQGTLVTVSA
VL: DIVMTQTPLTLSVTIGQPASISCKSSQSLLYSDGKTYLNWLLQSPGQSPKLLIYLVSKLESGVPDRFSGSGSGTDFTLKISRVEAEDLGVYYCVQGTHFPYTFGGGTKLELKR
notes: crude periplasmic Fab; mouse V regions joined to human CH1 and human kappa constant
Turning to B1, the A450 avg. turned out to be 2.04 in [1]; 1.61 in assay [2]; 1.23 in [3]; 2.16 in assay [4]; 0.725 in [5]; 2 in assay [6]. In addition, the A450 avg. amounted to 1.8 in [7]; 1.51 with mouse Tau; 1.53 in the assay with cynomolgus monkey Tau; 1.88 in assay [8]; 1.68 in [9].

B2: Clone 1D10 Fab (Fab, V domains shown)
VH: EVQLQQSGAELVRPGASVKLSCTASGFNIKDSLMHWMKQRPEQGLEWIGWIDPEDGETKYAPKFQDKATLTADTSSNAAYLQLSSLTSEDTAIYYCVRGDWDGGYWGQGTTLTVSS
VL: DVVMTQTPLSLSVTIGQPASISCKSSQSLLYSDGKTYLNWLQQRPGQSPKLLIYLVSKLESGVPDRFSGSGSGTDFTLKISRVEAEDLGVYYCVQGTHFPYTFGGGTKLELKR
notes: as for B1
On to B2, for which the A450 avg. in assay [1] is 1.47; in [2], 1.19; in assay [3], 0.806; in assay [4] it was 1.49; in assay [5], 0.323; in assay [6], 1.46. Besides, the A450 avg. in [7] was 0.939; with mouse Tau, 1.1; with cynomolgus monkey Tau it was 0.867; in assay [8] it was 1.19; in assay [9], 1.13.

B3: chimeric IgG clone 1C7 (antibody, V domains shown)
VH: EVKLVESGGGLVKPGGSLKLSCAASGFTFSSYGMSWVRQTPEKRLEWVASISGDGGSYIHYADSVKGRFTISRDSAKNTLYLQMSSLRSEDTALYYCARLPYWGQGTLVTVSA
VL: DIVMTQSPSSLTVTAGEKVTMSCKSSQSLLNSGNQKNYLTWYQQKPGQPPKLLIYWASTRESGVPDRFTGSGSGTDFTLTISNVQSEDLAEYFCQQYNSYPLTFGAGTKLELKR
notes: mouse-human chimeric IgG from HEK293; also called 1C7.IgG; anti-Tau^1C7
On to B3, for which the “normalized binding of second antibody” value in [10] was 1; in assay [11] it was 0.88; in assay [12], 0.82; in assay [13], 0.03; in assay [16] it was 0.84. Besides, the Kd – broadly, the concentration at which binding is half-saturated – in [14] is 0.2 nM; in assay [15] it was 0.8 nM and 0.44 nM.
